Laboratory results reported in patent US7105290 (PROCTER AND GAMBLE, dated 2006).

Tests used:
[1] = biological target: T1, BRK-2 co-expressed with t-BRK-3 (BRK-2/t-BRK-3 complex) (chicken; human, UniProt Q05438 14-502; Q13873 27-540); test: competition, 10 nM unlabeled ligand against [^125I]-BMP-4; crosslinking and immunoprecipitation with antiserum 1380
T1 construct: Both receptors co-transfected into COS cells; also called BRK-2 and BRK-3 receptor complex; BRK-2 plus t-BRK-3
Method: Following the crosslinking, cells are washed three times with ice-cold PBS, then lysed with 1 ml of RIP buffer (20 mM TrisCl, pH 8.0, 100 mM NaCl, 1 mM Na_2EDTA, 0.5% Nonidet P-40, 0.5% sodium deoxycholate, 10 mM sodium iodide, and 1% bovine serum albumin) for 10 min. The lysate is centrifuged in a microcentrifuge at 13,000 rpm for 10 min at 4° C. The supernatant is transferred to a fresh tube and made 0.1% in SDS. To remove any existing antibody present in the lysate, 50 µl of PANSORBIN (Calbiochem, La Jolla, Calif.; a 10% solution of *Staphylococcus aureus*) is added. After a 30 minute incubation at 4° C., the lysate is centrifuged as before, and the supernatant again transferred to a fresh tube.
To precipitate the complex of antigen:primary antibody, 25–50 µl of PANSORBIN is then added and incubated 30 min on ice. The complex is pelleted at 13,000 rpm for 10 min in a microcentrifuge and the supernatant discarded. The pellet is washed twice in RIP buffer containing 0.1% SDS, and once in TNEN buffer (20 mM Tris, pH 8.0, 100 mM NaCl, 1 mM EDTA, 0.5% NP-40). The pellet is resuspended in 25 µl of 1× sample loading buffer. (Alternatively, the pellet may be washed twice with TNEN buffer, with similar results.) The sample is boiled for 5 min, centrifuged for 5 min, and subjected to gel electrophoresis after loading of the samples onto a 7.5% SDS-polyacrylamide gel.

[2] = biological target: T2, mouse BMP receptor kinase protein m-BRK-3 (mouse), O35607; test: whole cell binding of radiolabeled ligand, COS-1 cells transfected with pJT6-mBRK-3S or pJT6-mBRK-3L; settings: remark: other sources report otherwise; scale: times the level seen with mock transfected cells
T2 chain: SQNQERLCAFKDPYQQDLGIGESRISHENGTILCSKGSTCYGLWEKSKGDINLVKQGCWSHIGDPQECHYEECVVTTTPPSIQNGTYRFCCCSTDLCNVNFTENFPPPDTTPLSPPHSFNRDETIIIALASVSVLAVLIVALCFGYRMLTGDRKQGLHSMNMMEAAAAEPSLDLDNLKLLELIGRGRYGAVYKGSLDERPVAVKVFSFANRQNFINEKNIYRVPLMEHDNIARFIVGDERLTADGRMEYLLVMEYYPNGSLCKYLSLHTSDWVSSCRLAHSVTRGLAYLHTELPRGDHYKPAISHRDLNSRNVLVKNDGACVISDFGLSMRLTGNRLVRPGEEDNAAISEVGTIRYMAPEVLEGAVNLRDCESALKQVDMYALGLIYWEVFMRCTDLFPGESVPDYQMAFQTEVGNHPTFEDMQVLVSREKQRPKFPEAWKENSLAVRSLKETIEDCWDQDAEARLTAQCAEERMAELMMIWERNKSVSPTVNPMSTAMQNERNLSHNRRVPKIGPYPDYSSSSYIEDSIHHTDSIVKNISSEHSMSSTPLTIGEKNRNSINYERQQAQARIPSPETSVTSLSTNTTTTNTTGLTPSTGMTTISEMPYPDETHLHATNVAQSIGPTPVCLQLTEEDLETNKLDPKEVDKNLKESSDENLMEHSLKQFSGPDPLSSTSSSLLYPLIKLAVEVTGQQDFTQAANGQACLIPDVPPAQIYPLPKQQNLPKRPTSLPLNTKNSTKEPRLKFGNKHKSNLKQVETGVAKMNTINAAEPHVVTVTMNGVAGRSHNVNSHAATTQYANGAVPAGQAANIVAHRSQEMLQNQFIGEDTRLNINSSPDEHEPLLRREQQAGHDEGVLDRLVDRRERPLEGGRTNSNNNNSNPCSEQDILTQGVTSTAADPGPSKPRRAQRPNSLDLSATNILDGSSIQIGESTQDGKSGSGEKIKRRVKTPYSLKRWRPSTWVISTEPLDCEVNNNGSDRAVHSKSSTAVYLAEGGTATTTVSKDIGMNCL

T1 sequence (Q05438 14-502 limits assumed, one chain of several): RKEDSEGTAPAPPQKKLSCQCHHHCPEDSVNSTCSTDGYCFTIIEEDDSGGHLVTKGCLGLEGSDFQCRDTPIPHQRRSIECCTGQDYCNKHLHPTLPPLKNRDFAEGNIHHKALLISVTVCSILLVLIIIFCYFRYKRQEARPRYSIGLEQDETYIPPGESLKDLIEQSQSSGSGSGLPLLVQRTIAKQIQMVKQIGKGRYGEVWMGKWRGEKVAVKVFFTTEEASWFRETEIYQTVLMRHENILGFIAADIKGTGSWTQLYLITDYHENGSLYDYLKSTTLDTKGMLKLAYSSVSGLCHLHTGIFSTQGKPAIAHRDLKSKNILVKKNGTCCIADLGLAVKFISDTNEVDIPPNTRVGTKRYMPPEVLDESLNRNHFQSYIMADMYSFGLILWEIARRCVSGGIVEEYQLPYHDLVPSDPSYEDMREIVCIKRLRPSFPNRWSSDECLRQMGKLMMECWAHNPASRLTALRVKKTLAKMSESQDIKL

B1: bone morphogenetic protein 2 (ligand, UniProt P12643 283-396, looked up)
chain: QAKHKQRKRLKSSCKRHPLYVDFSDVGWNDWIVAPPGYHAFYCHGECPFPLADHLNSTNHAIVQTLVNSVNSKIPKACCVPTELSAISMLYLDENEKVVLKNYQDMVVEGCGCR
notes: also called BMP-2
[1]
  binding result: binds

B2: bone morphogenetic protein 4, P12644 293-408 (ligand, UniProt P12644 293-408, looked up)
chain: SPKHHSQRARKKNKNCRRHSLYVDFSDVGWNDWIVAPPGYQAFYCHGDCPFPLADHLNSTNHAIVQTLVNSVNSSIPKACCVPTELSAISMLYLDEYDKVVLKNYQEMVVEGCGCR
modifications: here or on the partner: 125I-labelled when used as tracer ([^125I]-BMP-4; IODOBEADS or chloramine-T method); unlabeled when used as competitor
[2]
  specific binding of [^125I]-BMP-4 relative to mock transfected cells: 4 to 7
